The results in this text go back to US20120321619A1 (Bayer, published 2012).

Substitutions are numbered along the chain they refer to.

The labels stand for the following.
T1: recombinant soluble human C4.4a (human, UniProt O95274 31-308)
T1 construct: recombinant, soluble, purified protein; also called hC4.4a; full length C4.4a
T1 sequence: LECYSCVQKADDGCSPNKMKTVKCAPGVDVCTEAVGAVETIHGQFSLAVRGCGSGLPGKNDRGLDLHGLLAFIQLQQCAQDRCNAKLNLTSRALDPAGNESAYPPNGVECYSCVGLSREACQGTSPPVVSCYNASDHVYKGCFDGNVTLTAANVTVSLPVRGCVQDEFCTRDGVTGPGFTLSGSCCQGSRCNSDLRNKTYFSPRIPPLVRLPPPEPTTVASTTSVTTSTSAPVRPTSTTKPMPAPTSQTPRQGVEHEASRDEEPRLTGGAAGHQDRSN

T2: recombinant soluble murine C4.4a (mouse, UniProt Q91YK8 33-343, limits assumed)
T2 construct: also called mouse C4.4a; mC4.4a
T2 sequence (looked up): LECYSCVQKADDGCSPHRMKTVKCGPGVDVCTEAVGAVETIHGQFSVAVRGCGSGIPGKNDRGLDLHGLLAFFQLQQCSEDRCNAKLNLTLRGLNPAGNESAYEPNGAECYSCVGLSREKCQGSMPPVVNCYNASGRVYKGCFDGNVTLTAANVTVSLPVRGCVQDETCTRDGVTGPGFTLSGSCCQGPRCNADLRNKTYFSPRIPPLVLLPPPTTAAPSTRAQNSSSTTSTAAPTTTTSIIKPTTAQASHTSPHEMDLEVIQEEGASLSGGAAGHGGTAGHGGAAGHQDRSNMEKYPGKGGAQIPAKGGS

T3: murine C4.4a on transfected CHO-S:mC4.4a cells (mouse, UniProt Q91YK8 33-343)
T3 construct: full length GPI-anchored form, stably transfected; also called Mouse C4.4a:CHO; mC4.4a: CHO
T3 sequence: T2 sequence (looked up)

B1: wild-type Fab M20-D02 S-A (Fab, V domains shown)
VH: EVQLLESGGGLVQPGGSLRLSCAASGFTFSDYQMTWIRQTPGKGLEWVSGVSWNGARTHYADSVKGRFTISRDNSKNTLYLQMNSLRAEDTAVYYCAKGDYLVYSAYYFDSWGQGTLVTVTS
VL: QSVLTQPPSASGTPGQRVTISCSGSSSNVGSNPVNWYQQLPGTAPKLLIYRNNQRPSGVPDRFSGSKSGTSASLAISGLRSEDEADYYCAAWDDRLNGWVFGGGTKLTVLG
notes: Fab with 3×HA-tag and hexa-histidine tag at the C-terminus of the heavy chain, E. coli culture supernatant; also called M20-D02 S-A (parental Fab)
B2: M20-D02 S-A Fab LC A90Q (Fab, V domains shown)
VH: B1 VH
VL: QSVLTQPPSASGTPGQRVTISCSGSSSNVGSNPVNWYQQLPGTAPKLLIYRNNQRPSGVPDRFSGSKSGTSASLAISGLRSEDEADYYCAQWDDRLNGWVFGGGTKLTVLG
notes: Fab with 3×HA-tag and hexa-histidine tag at the C-terminus of the heavy chain, culture supernatant
B3: M20-D02 S-A Fab LC V97G (Fab, V domains shown)
VH: B1 VH
VL: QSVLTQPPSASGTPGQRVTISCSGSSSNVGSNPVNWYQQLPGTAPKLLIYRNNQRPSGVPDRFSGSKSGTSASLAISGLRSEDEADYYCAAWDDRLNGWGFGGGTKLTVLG
notes: as for B2
B4: M20-D02 S-A Fab HC A100bS (Fab, V domains shown)
VH: B1 VH with A106S
VL: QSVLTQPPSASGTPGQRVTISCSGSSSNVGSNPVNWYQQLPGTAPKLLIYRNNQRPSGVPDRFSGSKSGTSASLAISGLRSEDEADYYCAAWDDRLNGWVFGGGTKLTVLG
notes: as for B2
B5: M20-D02 S-A Fab LC V97A (Fab, V domains shown)
VH: B1 VH
VL: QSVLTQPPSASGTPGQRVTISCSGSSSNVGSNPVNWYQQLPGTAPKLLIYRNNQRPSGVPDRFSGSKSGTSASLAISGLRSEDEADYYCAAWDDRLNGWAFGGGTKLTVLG
notes: as for B2
B6: M20-D02 S-A Fab HC D101E (Fab, V domains shown)
VH: B1 VH with D110E
VL: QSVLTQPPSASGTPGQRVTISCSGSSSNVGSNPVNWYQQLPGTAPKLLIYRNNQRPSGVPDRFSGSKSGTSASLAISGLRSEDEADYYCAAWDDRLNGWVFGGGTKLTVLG
notes: as for B2
B7: M20-D02 S-A Fab HC D101R (Fab, V domains shown)
VH: B1 VH with D110R
VL: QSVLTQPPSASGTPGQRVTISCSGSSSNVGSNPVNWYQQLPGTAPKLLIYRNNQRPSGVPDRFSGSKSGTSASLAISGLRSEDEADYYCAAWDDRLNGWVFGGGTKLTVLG
notes: as for B2
B8: M20-D02 S-A Fab LC A90R (Fab, V domains shown)
VH: B1 VH
VL: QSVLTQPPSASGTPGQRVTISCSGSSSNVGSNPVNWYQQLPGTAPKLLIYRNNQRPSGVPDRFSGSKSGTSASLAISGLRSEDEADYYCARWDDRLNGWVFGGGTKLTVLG
notes: as for B2
B9: M20-D02 S-A Fab HC A55G (Fab, V domains shown)
VH: B1 VH with A56G
VL: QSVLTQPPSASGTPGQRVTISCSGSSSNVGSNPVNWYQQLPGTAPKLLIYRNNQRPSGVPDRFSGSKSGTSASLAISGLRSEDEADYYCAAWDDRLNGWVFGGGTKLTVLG
notes: as for B2
B10: M20-D02 S-A Fab HC R56S (Fab, V domains shown)
VH: B1 VH with R57S
VL: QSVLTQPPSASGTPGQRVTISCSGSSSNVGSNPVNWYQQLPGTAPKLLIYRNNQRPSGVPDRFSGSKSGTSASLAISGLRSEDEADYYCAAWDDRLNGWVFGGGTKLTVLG
notes: as for B2
B11: M20-D02 S-A Fab HC V51I (Fab, V domains shown)
VH: B1 VH with V51I
VL: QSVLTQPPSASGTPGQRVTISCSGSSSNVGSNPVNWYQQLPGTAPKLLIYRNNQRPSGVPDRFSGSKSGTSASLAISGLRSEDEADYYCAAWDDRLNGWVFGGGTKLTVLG
notes: as for B2
B12: M20-D02 S-A Fab LC D92G (Fab, V domains shown)
VH: B1 VH
VL: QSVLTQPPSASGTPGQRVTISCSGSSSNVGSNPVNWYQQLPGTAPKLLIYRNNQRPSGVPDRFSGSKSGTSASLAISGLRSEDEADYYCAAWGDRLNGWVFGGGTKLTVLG
notes: as for B2
B13: M20-D02 S-A Fab HC A100bR (Fab, V domains shown)
VH: B1 VH with A106R
VL: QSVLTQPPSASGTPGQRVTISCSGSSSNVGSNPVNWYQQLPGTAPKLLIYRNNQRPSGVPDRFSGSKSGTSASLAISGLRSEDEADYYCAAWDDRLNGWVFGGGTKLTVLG
notes: as for B2
B14: M20-D02 S-A Fab HC S100aK (Fab, V domains shown)
VH: B1 VH with S105K
VL: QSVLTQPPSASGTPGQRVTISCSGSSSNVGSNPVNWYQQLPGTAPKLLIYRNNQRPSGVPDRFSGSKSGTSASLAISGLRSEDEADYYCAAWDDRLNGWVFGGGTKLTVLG
notes: as for B2
B15: M20-D02 S-A Fab HC D101K (Fab, V domains shown)
VH: B1 VH with D110K
VL: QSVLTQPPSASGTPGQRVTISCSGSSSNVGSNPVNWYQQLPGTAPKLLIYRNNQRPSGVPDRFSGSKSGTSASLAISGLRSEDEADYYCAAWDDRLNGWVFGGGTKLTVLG
notes: as for B2
B16: M20-D02 S-A Fab HC S100aR (Fab, V domains shown)
VH: B1 VH with S105R
VL: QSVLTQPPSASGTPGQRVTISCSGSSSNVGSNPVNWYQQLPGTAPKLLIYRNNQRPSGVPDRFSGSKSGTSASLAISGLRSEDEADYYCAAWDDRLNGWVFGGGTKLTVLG
notes: as for B2
B17: M31-B01 Fab LC W91F (Fab, V domains shown)
VH: EVQLLESGGGLVQPGGSLRLSCAASGFTFSNAWMSWVRQAPGKGLEWVSYISSSGSTIYYADSVKGRFTISRDNSKNTLYLQMNSLRAEDTAVYYCAREGLWAFDYWGQGTLVTVTS
VL: QSVLTQPPSASGTPGQRVTISCTGSSSNIGAGYVVHWYQQLPGTAPKLLIYDNNKRPSGVPDRFSGSKSGTSASLAISGLRSEDEADYYCAAFDDRLNGPVFGGGTKLTVLG
notes: as for B2
B18: M31-B01 Fab LC W91E (Fab, V domains shown)
VH: B17 VH
VL: B17 VL with F93E
notes: as for B2
B19: M31-B01 Fab LC W91Y (Fab, V domains shown)
VH: B17 VH
VL: B17 VL with F93Y
notes: as for B2
B20: D02-4 (antibody, human IgG1, V domains shown)
VH: B1 VH with V51I, A56G, R57S, T121S
VL: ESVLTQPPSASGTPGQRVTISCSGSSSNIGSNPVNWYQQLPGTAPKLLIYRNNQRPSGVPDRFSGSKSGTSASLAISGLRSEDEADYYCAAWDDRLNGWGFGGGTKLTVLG
notes: tested as human IgG1; also called D02-04
B21: B01-12 (antibody, V domains shown)
VH: B17 VH with N31S, T57S, I58T, Y106K, T116S
VL: B17 VL with T23S, K55Q, N98S
notes: tested as human IgG1

The first experiment concerns the target T1, recombinant soluble human C4.4a. Description: direct ELISA, Fab supernatant on coated human C4.4a, signal normalized to Fab quantity. As for the experimental part:
(§1) Cultures were diluted in 10% Smart Block in PBST and bound to the MTP plates for 1 h at 20° C. After washing with PBST, captured antibodies were incubated with a HRP-coupled anti-lambda antibody (Sigma, A5175) and detected by incubating the plate with 10 μM amplex red substrate (Invitrogen, A12222) for 30 minutes at 20° C. in the dark followed by fluorescence measurement. Determined quantification signals were checked to be in the dynamic range of an calibration series built up with concentrated parental Fab (M31-B01 or M20-D02-S-A) expression culture supernatant allowing a relative quantification of each individual Fab expression sample.
(§2) To determine the activity of the mutated Fab variants on recombinant soluble human or mouse C4.4a a direct ELISA assay format was used. Briefly, MTP plates (Nunc maxisorp black, 460518) were coated with 2 μg/ml either human or mouse C4.4a diluted in coating buffer (Candor Bioscience GmbH, 121125) and incubated for 15 h at 4° C. After washing 3 times with PBST, plates were blocked with 100% Smart Block (Candor Bioscience GmbH, 113500) for 1 h at 20° C. and the washing steps were repeated. For binding of the Fab antibody fragments 20 μl of culturing supernatants were added to the plates for 1 h at 20° C. followed by washing. In some cases the washing stringency was increased by an additional incubation step with 10% Smart Block in PBST for 90 min followed by washing 3 times with PBST (“process B” in Table 10b). Bound parental Fabs and variants were then detected by a HA-epitope tag specific antibody HRP conjugate (Bethyl, A190-108P). 10 μM amplex red substrate (Invitrogen, A12222) was added to the plates and the fluorescence signal was detected using a common fluorescence reader, e.g. Tecan Ultra. Quantity normalized affinity signals were calculated as ratios of background corrected affinity and quantification signals in the respective ELISA: (Signalaffinity−Backgroundaffinity)/(Signalquantity−Backgroundquantity). The resulting values correlate mainly with the affinity in a positive manner, whereas not normalized values correlate additionally with the concentration of the binding Fab in the sample.
A general note: In an ELISA, binding on a coated surface is turned into a signal by an enzyme label.
As to B1, the “normalized affinity signal (average)” value was 0.04 and the “normalized affinity signal (median, process A)” value worked out at 0.15.
As to B2, the “normalized affinity signal (average)” value came out at 1.41.
On the same count and under the same terms, in the case of B3 it was 1.21; in that of B4, 0.34; in that of B5, 1.32.
B6: the “normalized affinity signal (average)” value was determined as 0.31.
As for B7, the “normalized affinity signal (average)” value amounted to 0.61.
As for B8, the “normalized affinity signal (average)” value is 0.94.
As for B9, the “normalized affinity signal (median, process A)” value worked out at 0.15.
Still for that read-out and setting: under B10 stands 0.21.
The same measure, in the same setting: under B11 stands 0.52.
For the molecule B12, the “normalized affinity signal (average)” value worked out at 0.64.
Still for that read-out and setting: in the case of B13 it was 0.87; in that of B14, 0.45.
For the molecule B15, the “normalized affinity signal (average)” value was found to be 1.65.
B16: the “normalized affinity signal (average)” value turned out to be 0.43.
B17: the “normalized affinity signal (average)” value is 4.3.
Same read-out and setting: under B18 stands 3.17; under B19, 4.97.

Another experiment shares this target. Description: SPR (Biacore T100), IgG1 captured by anti-human Fc, soluble C4.4a injected, 1:1 fit. On the procedure: (§3) Binding affinities of anti C4.4 antibodies were determined by surface plasmon resonance analysis on a Biacore T100 instrument (GE Healthcare Biacore, Inc.). Antibodies were immobilized onto a CM5 sensor chip through an indirect capturing reagent, anti-human IgG Fc. Reagents from the “Human Antibody Capture Kit” (BR-1008-39, GE Healthcare Biacore, Inc.) were used as described by the manufacturer. Approximately 5000 RU monoclonal mouse anti-human IgG (Fc) antibody were immobilized per cell. Anti C4.4 antibodies were injected at a concentration of 5 μg/ml at 10 μl/min for 10 sec to reach a capturing level of approximately 200 to 600 RU. Various concentrations (400 nM, 200 nM, 100 nM, 50 nM, 25 nM, 12.5 nM, 6.25 nM, and 3.12 nM) in HEPES-EP buffer (GE Healthcare Biacore, Inc.) of human or murine C4.4a were injected over immobilized anti C4.4a antibodies at a flow rate of 60 μl/min for 3 minutes and the dissociation was allowed for 10 minutes. Sensograms were generated after in-line reference cell correction followed by buffer sample subtraction. The dissociation equilibrium constant (KD) was calculated based on the ratio of association (kₒₙ) and dissociation rated (koff) constants, obtained by fitting sensograms with a first order 1:1 binding model using Biavaluation Software (version 4.0).
What is called Kd is the constant that tells how readily two partners part at equilibrium. For the molecule B20, the Kd was 29 nM.
Turning to B21, the Kd is 1 nM.

The target in the next experiment is T2, recombinant soluble murine C4.4a. Described as above. On the procedure:
as §3
For B20, the Kd was found to be 56 nM.
The same measure, in the same setting: under B21 stands 2 nM.

The target in the next experiment is T3, murine C4.4a on transfected …. Description: FACS titration of IgG1 on CHO-S:mC4.4a cells.
The EC50 is the concentration needed to bring the measured effect to its halfway point. Take B21: the response was half-maximal at 1.4 nM (EC50).

The target of another experiment is T2, recombinant soluble murine C4.4a. Description: direct ELISA, Fab supernatant on coated mouse C4.4a, signal normalized to Fab quantity. As for the experimental part: as §1, §2
Take B1: the “normalized affinity signal (average)” value was found to be 0.01 and the “normalized affinity signal (median, process A)” value was 0.04.
For the molecule B2, the “normalized affinity signal (average)” value stood at 0.29.
On the same count and under the same terms, in the case of B3 it was 0.3; in that of B4, 0.02; in that of B5, 0.52.
The same measure, in the same setting: under B6 stands 0.05; under B7, 0.03; under B8, 0.17.
On to B9, for which the “normalized affinity signal (median, process A)” value is 0.04.
The same measure, in the same setting: in the case of B10 it was 0.06; in that of B11, 0.16.
With B12, the “normalized affinity signal (average)” value was found to be 0.1.
Still for that read-out and setting: in the case of B13 it was 0.01.
The same measure, in the same setting: in the case of B14 it was 0.06; in that of B15, 0.21; in that of B16, 0.02.
Still for that read-out and setting: under B17 stands 2.53; under B18, 0.4; under B19, 2.79.
